# Substitutions are numbered along the chain they refer to. Like-named read-outs stand apart in the source and are kept apart here.
# B1: Fc-IL12(mutein 1) (Fc fusion)
# chain: ESKYGPPCPPCPAPPVAGPSVFLFPPKPKDTLMISRTPEVTCVVVDVSQEDPEVQFNWYVDGVEVHNAKTKPREEQFNSTYRVVSVLTVLHQDWLNGKEYKCKVSNKGLPSSIEKTISKAKGQPREPQVYTLPPSQEEMTKNQVSLTCLVKGFYPSDIAVEWESNGQPENNYKTTPPVLDSDGSFFLYSRLTVDKSRWQEGNVFSCSVMHEALHNHYTQKSLSLSLGKGGGGSGGGGSGGGGSMWELEKDVYVVEVDWTPDAPGETVNLTCDTPEEDDITWTSDQRHGVIGSGKTLTITVKEFLDAGQYTCHKGGETLSHSHLLLHKKENGIWSTEILKNFKNKTFLKCEAPNYSGRFTCSWLVQRNMDLKFNIKSSSSSPDSRAVTCGMASLSAEKVTLDQRDYEKYSVSCQEDVTCPTAEETLPIELALEARQQNKYENYSTSFFIRDIIKPDPPKNLQMKPLKNSQVEVSWEYPDSWSTPHSYFSLKFFVRIQRKKEKMKETEEGCNQKGAFLVEKTSTEVQCKGGNVCVQAQDRYYNSSCSKWACVPCRVRSGGGGSGGGGSGGGGSRVIPVSGPARCLSQSRNLLKTTDDMVKTAREKLKHYSCTAEDIDHEDITRDQTSTLKTCLPLELHKNESCLATRETSSTTRGSCLPPQKTSLMMTLCLGSIYEDLKMYQTEFQAINAALQNHNHQQIILDKGMLVAIDELMQSLNHNGETLRQKPPVGEADPARVKMKLCILLHAFSTRVVTINRVMGYLSSA
# B2: Fc-IL12(mutein 8) (Fc fusion)
# chain: B1 chain with W258A, A734Y
# B3: Fc-IL12(mutein 3) (Fc fusion)
# chain: B1 chain with A734R
# B4: Fc-IL12(mutein 2) (Fc fusion)
# chain: B1 chain with A734V
# B5: Fc-IL12(mutein 11) (Fc fusion)
# chain: B1 chain with E336A, K339A, K342A, K344A, A734Y
# B6: Fc-IL12(mutein 4) (Fc fusion)
# chain: B1 chain with A734E
# B7: Bivalent: IL12(p40-p35)-Fc (Fc fusion)
# chain: MWELEKDVYVVEVDWTPDAPGETVNLTCDTPEEDDITWTSDQRHGVIGSGKTLTITVKEFLDAGQYTCHKGGETLSHSHLLLHKKENGIWSTEILKNFKNKTFLKCEAPNYSGRFTCSWLVQRNMDLKFNIKSSSSSPDSRAVTCGMASLSAEKVTLDQRDYEKYSVSCQEDVTCPTAEETLPIELALEARQQNKYENYSTSFFIRDIIKPDPPKNLQMKPLKNSQVEVSWEYPDSWSTPHSYFSLKFFVRIQRKKEKMKETEEGCNQKGAFLVEKTSTEVQCKGGNVCVQAQDRYYNSSCSKWACVPCRVRSGGGGSGGGGSGGGGSRVIPVSGPARCLSQSRNLLKTTDDMVKTAREKLKHYSCTAEDIDHEDITRDQTSTLKTCLPLELHKNESCLATRETSSTTRGSCLPPQKTSLMMTLCLGSIYEDLKMYQTEFQAINAALQNHNHQQIILDKGMLVAIDELMQSLNHNGETLRQKPPVGEADPYRVKMKLCILLHAFSTRVVTINRVMGYLSSAGGGGSGGGGSGGGGSESKYGPPCPPCPAPPVAGPSVFLFPPKPKDTLMISRTPEVTCVVVDVSQEDPEVQFNWYVDGVEVHNAKTKPREEQFNSTYRVVSVLTVLHQDWLNGKEYKCKVSNKGLPSSIEKTISKAKGQPREPQVYTLPPSQEEMTKNQVSLTCLVKGFYPSDIAVEWESNGQPENNYKTTPPVLDSDGSFFLYSRLTVDKSRWQEGNVFSCSVMHEALHNHYTQKSLSLSLGK
# B8: Bivalent: IL12*(p40*-p35*)-Fc (Fc fusion)
# chain: B7 chain with C175S, C398S
# B9: Fc-IL12(mutein 12) (Fc fusion)
# chain: ESKYGPPCPPCPAPPVAGPSVFLFPPKPKDTLMISRTPEVTCVVVDVSQEDPEVQFNWYVDGVEVHNAKTKPREEQFNSTYRVVSVLTVLHQDWLNGKEYKCKVSNKGLPSSIEKTISKAKGQPREPQVYTLPPSQEEMTKNQVSLTCLVKGFYPSDIAVEWESNGQPENNYKTTPPVLDSDGSFFLYSRLTVDKSRWQEGNVFSCSVMHEALHNHYTQKSLSLSLGKGGGGSGGGGSGGGGSNGIWSTEILKNFKNKTFLKCEAPNYSGRFTCSWLVQRNMDLKFNIKSSSSSPDSRAVTCGMASLSAEKVTLDQRDYEKYSVSCQEDVTCPTAEETLPIELALEARQQNKYENYSTSFFIRDIIKPDPPKNLQMKPLKNSQVEVSWEYPDSWSTPHSYFSLKFFVRIQRKKEKMKETEEGCNQKGAFLVEKTSTEVQCKGGNVCVQAQDRYYNSSCSKWACVPCRVRSGGGGSGGGGSGGGGSRVIPVSGPARCLSQSRNLLKTTDDMVKTAREKLKHYSCTAEDIDHEDITRDQTSTLKTCLPLELHKNESCLATRETSSTTRGSCLPPQKTSLMMTLCLGSIYEDLKMYQTEFQAINAALQNHNHQQIILDKGMLVAIDELMQSLNHNGETLRQKPPVGEADPYRVKMKLCILLHAFSTRVVTINRVMGYLSSA
# B10: IL12(mutein 13)-Fc (Fc fusion)
# chain: NGIWSTEILKNFKNKTFLKCEAPNYSGRFTCSWLVQRNMDLKFNIKSSSSSPDSRAVTCGMASLSAEKVTLDQRDYEKYSVSCQEDVTCPTAEETLPIELALEARQQNKYENYSTSFFIRDIIKPDPPKNLQMKPLKNSQVEVSWEYPDSWSTPHSYFSLKFFVRIQRKKEKMKETEEGCNQKGAFLVEKTSTEVQCKGGNVCVQAQDRYYNSSCSKWACVPCRVRSGGGGSGGGGSGGGGSRVIPVSGPARCLSQSRNLLKTTDDMVKTAREKLKHYSCTAEDIDHEDITRDQTSTLKTCLPLELHKNESCLATRETSSTTRGSCLPPQKTSLMMTLCLGSIYEDLKMYQTEFQAINAALQNHNHQQIILDKGMLVAIDELMQSLNHNGETLRQKPPVGEADPYRVKMKLCILLHAFSTRVVTINRVMGYLSSAGGGGSGGGGSGGGGSESKYGPPCPPCPAPPVAGPSVFLFPPKPKDTLMISRTPEVTCVVVDVSQEDPEVQFNWYVDGVEVHNAKTKPREEQFNSTYRVVSVLTVLHQDWLNGKEYKCKVSNKGLPSSIEKTISKAKGQPREPQVYTLPPSQEEMTKNQVSLTCLVKGFYPSDIAVEWESNGQPENNYKTTPPVLDSDGSFFLYSRLTVDKSRWQEGNVFSCSVMHEALHNHYTQKSLSLSLGK
# Columns and labels:
# [1] = target: T1, murine IL12 receptor complex (IL12Rβ1 and IL12Rβ2) (mouse, UniProt Q60837 20-738; P97378 24-874); test: cell-based or functional assay
# T1 sequence (Q60837 20-738, chain 1 of 2): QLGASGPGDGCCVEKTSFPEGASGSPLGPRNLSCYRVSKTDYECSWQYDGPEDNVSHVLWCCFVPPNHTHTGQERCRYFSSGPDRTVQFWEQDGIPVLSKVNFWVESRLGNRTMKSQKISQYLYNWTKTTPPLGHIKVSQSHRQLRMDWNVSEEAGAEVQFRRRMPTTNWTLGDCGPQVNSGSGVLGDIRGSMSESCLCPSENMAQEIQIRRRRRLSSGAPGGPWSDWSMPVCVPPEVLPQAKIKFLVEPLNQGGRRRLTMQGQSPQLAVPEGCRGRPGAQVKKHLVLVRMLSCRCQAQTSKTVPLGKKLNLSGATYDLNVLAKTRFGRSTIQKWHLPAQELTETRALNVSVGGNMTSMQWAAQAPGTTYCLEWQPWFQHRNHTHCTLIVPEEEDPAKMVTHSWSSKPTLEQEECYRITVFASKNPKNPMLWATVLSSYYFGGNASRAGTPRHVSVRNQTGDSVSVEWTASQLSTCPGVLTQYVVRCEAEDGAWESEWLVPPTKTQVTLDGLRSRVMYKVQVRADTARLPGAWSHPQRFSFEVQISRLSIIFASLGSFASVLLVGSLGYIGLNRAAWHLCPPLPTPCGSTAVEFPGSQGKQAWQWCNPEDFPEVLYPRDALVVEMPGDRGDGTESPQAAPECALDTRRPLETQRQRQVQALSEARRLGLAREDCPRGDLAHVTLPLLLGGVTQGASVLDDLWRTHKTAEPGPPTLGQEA
# T1 sequence (P97378 24-874, chain 2 of 2): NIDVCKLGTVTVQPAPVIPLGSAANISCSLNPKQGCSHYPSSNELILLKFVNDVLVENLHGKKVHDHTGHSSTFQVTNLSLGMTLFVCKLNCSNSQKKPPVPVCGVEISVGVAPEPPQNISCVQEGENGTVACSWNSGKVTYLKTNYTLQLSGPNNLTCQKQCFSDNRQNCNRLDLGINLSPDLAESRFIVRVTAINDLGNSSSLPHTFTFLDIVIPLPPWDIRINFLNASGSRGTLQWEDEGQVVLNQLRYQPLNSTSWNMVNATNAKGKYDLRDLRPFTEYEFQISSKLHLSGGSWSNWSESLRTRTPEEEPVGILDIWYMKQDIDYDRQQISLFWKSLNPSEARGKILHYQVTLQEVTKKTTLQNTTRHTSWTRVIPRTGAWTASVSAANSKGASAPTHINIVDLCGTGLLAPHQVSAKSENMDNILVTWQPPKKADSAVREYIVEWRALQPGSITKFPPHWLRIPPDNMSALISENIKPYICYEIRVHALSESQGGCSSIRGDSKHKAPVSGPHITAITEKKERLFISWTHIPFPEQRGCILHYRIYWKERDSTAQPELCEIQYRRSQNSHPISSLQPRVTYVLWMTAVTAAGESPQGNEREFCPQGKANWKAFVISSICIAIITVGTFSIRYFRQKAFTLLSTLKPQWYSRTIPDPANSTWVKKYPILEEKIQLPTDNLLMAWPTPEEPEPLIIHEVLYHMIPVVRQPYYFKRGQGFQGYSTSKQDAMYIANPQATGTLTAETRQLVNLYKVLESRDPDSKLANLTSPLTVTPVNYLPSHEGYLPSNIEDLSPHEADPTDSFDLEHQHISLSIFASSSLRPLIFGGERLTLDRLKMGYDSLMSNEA
# [2] = target: T1, murine IL12 receptor complex (IL12Rβ1 …); test: cell-based or functional assay; remark: listed apart in the source
Binder,"EC50 (M); STAT3-Luc reporter, CTLL2/STAT3-Luc cells [1] [M]","Fold induction at 20 nM; STAT3-Luc reporter, CTLL2/STAT3-Luc cells [1] [fold]","Max fold induction; STAT3-Luc reporter, CTLL2/STAT3-Luc cells [1] [fold]","EC50 (M); STAT3-Luc reporter, CTLL2/STAT3-Luc cells [2] [M]","Fold induction at 6.25 nM; STAT3-Luc reporter, CTLL2/STAT3-Luc cells [2] [fold]","Max fold induction; STAT3-Luc reporter, CTLL2/STAT3-Luc cells [2] [fold]"
B1,1.76e-10,4.52,4.52,,,
B2,8.05e-10,10,10.1,,,
B3,,1.06,1.11,,,
B4,2.6e-10,5.41,5.9,,,
B5,1.33e-09,8.93,10.2,,,
B6,,1.12,1.16,,,
B7,,,,1.16e-11,7.52,15.4
B8,,,,1.72e-11,7.01,8.48
B9,,1.04,1.1,,,
B10,,1.37,27.5,,,

# — patent US20230051304A1 (Regeneron, published 2023)
